Data on seven sequences can be found in the supplement of paper PMC11246515.

The series can be described thus: total protein half-life in vivo (active degradation + dilution); higher = more stable protein.
The mark [1] stands for this setting: E. coli NCM3722 delta-clpP delta-lon delta-hslV, growth: N-lim chemostat, doubling time 6 h.
The mark [2] stands for this setting: E. coli NCM3722 delta-clpP, growth: N-lim chemostat, doubling time 6 h.
Where [3] appears, read: E. coli NCM3722 delta-hslV, growth: N-lim chemostat, doubling time 6 h.
[4] abbreviates: E. coli NCM3722 delta-lon, growth: N-lim chemostat, doubling time 6 h.
[5] abbreviates: E. coli NCM3722 delta-smpB, growth: N-lim chemostat, doubling time 6 h.
Setting [6] is: wild type E. coli NCM3722, growth: C-lim chemostat, doubling time 3 h.
The mark [7] stands for this setting: wild type E. coli NCM3722, growth: C-lim chemostat, doubling time 6 h.
Setting [8] is: wild type E. coli NCM3722, growth: C-lim chemostat, doubling time 12 h.
[9] abbreviates: wild type E. coli NCM3722, growth: N-lim chemostat, doubling time 6 h.
The mark [10] stands for this setting: wild type E. coli NCM3722, growth: N-lim chemostat, doubling time 12 h.
[11] abbreviates: wild type E. coli NCM3722, growth: P-lim chemostat, doubling time 6 h.
Setting [12] is: wild type E. coli NCM3722, growth: P-lim chemostat, doubling time 12 h.

± gives the standard deviation of the averaged measurements.

Consider “MQENISVTDSYSTGNAAQAMLEKLLQIYDVKTLVAQLNGVGENHWSAAILKRALANDSAWHRLSEKEFAHLQTLLPKPPAHHPHYAFRFIDLFAGIGGIRRGFESIGGQCVFTSEWNKHAVRTYKANHYCDPATHHFNEDIRDITLSHKEGVSDEAAAEHIRQHIPEHDVLLAGFPCQPFSLAGVSKKNSLGRAHGFACDTQGTLFFDVVRIIDARRPAMFVLENVKNLKSHDQGKTFRIIMQTLDELGYDVADAEDNGPDDPKIIDGKHFLPQHRERIVLVGFRRDLNLKADFTLRDISECFPAQRVTLAQLLDPMVEAKYILTPVLWKYLYRYAKKHQARGNGFGYGMVYPNNPQSVTRTLSARYYKDGAEILIDRGWDMATGEKDFDDPLNQQHRPRRLTPRECARLMGFEAPGEAKFRIPVSDTQAYRQFGNSVVVPVFAAVAKLLEPKIKQAVALRQQEAQHGRRSR [P0AED9]”, for which the “total protein half-life in vivo” value is, setting by setting: under setting [1], 6.76 ± 1.5 h; under setting [2], 5.15 ± 0.12 h; under setting [3], 3.09 ± 0.34 h; under setting [4], 2.96 ± 0.39 h; under setting [5], 2.66 ± 0.11 h; under setting [6], 2.31 ± 0.072 h. The “total protein half-life in vivo” value is, setting by setting: under setting [7], 3.32 ± 0.18 h; under setting [8], 6.06 ± 0.83 h; under setting [9], 3.04 ± 0.39 h; under setting [10], 3.94 ± 0.19 h; under setting [11], 3.02 ± 0.45 h; under setting [12], 5.98 ± 1 h.
Take “MIRISDAAQAHFAKLLANQEEGTQIRVFVINPGTPNAECGVSYCPPDAVEATDTALKFDLLTAYVDELSAPYLEDAEIDFVTDQLGSQLTLKAPNAKMRKVADDAPLMERVEYMLQSQINPQLAGHGGRVSLMEITEDGYAILQFGGGCNGCSMVDVTLKEGIEKQLLNEFPELKGVRDLTEHQRGEHSYY”: the “total protein half-life in vivo” value reads like this: under setting [1], 4.529 ± 0.0069 h; under setting [2], 3.82 ± 0.32 h; under setting [3], 2.533 ± 0.019 h; under setting [4], 2.97 ± 0.2 h; under setting [5], 2.54 ± 0.25 h; under setting [6], 2.32 ± 0.16 h. Also, the “total protein half-life in vivo” value under setting [7] is 3.4 ± 0.13 h; the “total protein half-life in vivo” value under setting [8] was determined as 5.07 ± 0.12 h; the “total protein half-life in vivo” value under setting [9] was 2.55 ± 0.36 h; the “total protein half-life in vivo” value under setting [10] was found to be 3.63 ± 0.19 h; the “total protein half-life in vivo” value under setting [11] stood at 3.01 ± 0.56 h; the “total protein half-life in vivo” value under setting [12] is 6.09 ± 0.23 h.
For the sequence “MIIPALDLIDGTVVRLHQGDYGKQRDYGNDPLPRLQDYAAQGAEVLHLVDLTGAKDPAKRQIPLIKTLVAGVNVPVQVGGGVRSEEDVAALLEAGVARVVVGSTAVKSQDMVKGWFERFGADALVLALDVRIDEQGNKQVAVSGWQENSGVSLEQLVETYLPVGLKHVLCTDISRDGTLAGSNVSLYEEVCARYPQVAFQSSGGIGDIDDVAALRGTGVRGVIVGRALLEGKFTVKEAIACWQNA”, the “total protein half-life in vivo” value is, setting by setting: under setting [1], 4.64 ± 0.11 h; under setting [2], 3.46 ± 0.32 h; under setting [3], 4.07 ± 0.29 h; under setting [4], 4.52 ± 0.096 h; under setting [5], 3.23 ± 0.34 h; under setting [6], 3.21 ± 0.094 h. Besides, the “total protein half-life in vivo” value worked out at 5.72 ± 0.66 h under setting [7]; 10 ± 1.4 h under setting [8]; 3.66 ± 0.097 h under setting [9]; 5.29 ± 0.65 h under setting [10]; 5.28 ± 0.072 h under setting [11]; 9.43 ± 0.71 h under setting [12].
In the case of “MKIIILGAGQVGGTLAENLVGENNDITVVDTNGERLRTLQDKFDLRVVQGHGSHPRVLREAGADDADMLVAVTSSDETNMVACQVAYSLFNTPNRIARIRSPDYVRDADKLFHSDAVPIDHLIAPEQLVIDNIYRLIEYPGALQVVNFAEGKVSLAVVKAYYGGPLIGNALSTMREHMPHIDTRVAAIFRHDRPIRPQGSTIVEAGDEVFFIAASQHIRAVMSELQRLEKPYKRIMLVGGGNIGAGLARRLEKDYSVKLIERNQQRAAELAEKLQNTIVFFGDASDQELLAEEHIDQVDLFIAVTNDDEANIMSAMLAKRMGAKKVMVLIQRRAYVDLVQGSVIDIAISPQQATISALLSHVRKADIVGVSSLRRGVAEAIEAVAHGDESTSRVVGRVIDEIKLPPGTIIGAVVRGNDVMIANDNLRIEQGDHVIMFLTDKKFITDVERLFQPSPFFL [P0AGI8]”, the “total protein half-life in vivo” value came out at 6.84 ± 1.2 h under setting [1]; 4.97 ± 0.52 h under setting [2]; 5.96 ± 0.17 h under setting [3]; 5.31 ± 0.37 h under setting [4]; 5.41 ± 0.16 h under setting [5]; 3.056 ± 0.029 h under setting [6]. For the same sequence, the “total protein half-life in vivo” value is 6.56 ± 0.57 h under setting [7]; 11.5 ± 0.3 h under setting [8]; 5.839 ± 0.044 h under setting [9]; 12 ± 0.56 h under setting [10]; 6.38 ± 0.11 h under setting [11]; 13.2 ± 0.66 h under setting [12].
With “MTEKVKQHAAPVTGSDEIDIGRLVGTVIEARWWVIGITTVFALCAVVYTFFATPIYSADALVQIEQNSGNSLVQDIGSALANKPPASDAEIQLIRSRLVLGKTVDDLDLDIAVSKNTFPIFGAGWDRLMGRQNETVKVTTFNRPKEMADQVFTLNVLDNKNYTLSSDGGFSARGQAGQMLKKEGVTLMVEAIHASPGSEFTVTKYSTLGMINQLQNSLTVTENGKDAGVLSLTYTGEDREQIRDILNSIARNYQEQNIERKSAEASKSLAFLAQQLPEVRSRLDVAENKLNAFRQDKDSVDLPLEAKAVLDSMVNIDAQLNELTFKEAEISKLYTKVHPAYRTLLEKRQALEDEKAKLNGRVTAMPKTQQEIVRLTRDVESGQQVYMQLLNKEQELKITEASTVGDVRIVDPAITQPGVLKPKKGLIILGAIILGLMLSIVGVLLRSLFNRGIESPQVLEEHGISVYASIPLSEWQKARDSVKTIKGIKRYKQSQLLAVGNPTDLAIEAIRSLRTSLHFAMMQAQNNVLMMTGVSPSIGKTFVCANLAAVISQTNKRVLLIDCDMRKGYTHELLGTNNVNGLSEILIGQGDITTAAKPTSIAKFDLIPRGQVPPNPSELLMSERFAELVNWASKNYDLVLIDTPPILAVTDAAIVGRHVGTTLMVARYAVNTLKEVETSLSRFEQNGIPVKGVILNSIFRRASAYQDYGYYEYEYKSDAK”, the “total protein half-life in vivo” value worked out at 4.27 ± 0.44 h under setting [4], 2.13 ± 0.52 h under setting [5] and 2.75 h under setting [6].
For “MVERTAVFPAGRHSLYAEHRYSAAIRSGDLLFVSGQVGSREDGTPEPDFQQQVRLAFDNLHATLAAAGCTFDDIIDVTSFHTDPENQFEDIMTVKNEIFSAPPYPNWTAVGVTWLAGFDFEIKVIARIPEQ”, the “total protein half-life in vivo” value by setting is: under setting [1], 5.72 ± 0.59 h; under setting [2], 4.29 ± 0.47 h; under setting [3], 5.62 ± 1.5 h; under setting [4], 5.45 ± 0.62 h; under setting [5], 4.61 ± 0.57 h; under setting [6], 3.61 h. The “total protein half-life in vivo” value was 6.32 h under setting [7]; 11.5 ± 1.1 h under setting [8]; 5.02 ± 0.087 h under setting [9]; 8.83 ± 0.12 h under setting [10]; 5.604 ± 0.05 h under setting [11]; 12.1 ± 0.51 h under setting [12].
As to “MSIIKEFREFAMRGNVVDLAVGVIIGAAFGKIVSSLVADIIMPPLGLLIGGIDFKQFAVTLRDAQGDIPAVVMHYGVFIQNVFDFLIVAFAIFMAIKLINKLNRKKEEPAAAPAPTKEEVLLTEIRDLLKEQNNRS [P0A742]”, the “total protein half-life in vivo” value stood at 5.9 ± 0.17 h under setting [1]; 5.99 ± 0.24 h under setting [2]; 6.46 ± 0.16 h under setting [3]; 5.9 ± 0.71 h under setting [4]; 6.222 ± 0.036 h under setting [5]; 3.17 ± 0.14 h under setting [6]. Also, the “total protein half-life in vivo” value came out at 6.12 ± 0.27 h under setting [7]; 12.4 ± 1.9 h under setting [8]; 6.41 ± 0.12 h under setting [9]; 11.5 ± 2.5 h under setting [10]; 5.8 ± 0.23 h under setting [11]; 13.3 ± 1.1 h under setting [12].
